According to the DeepSol protein solubility set:

Experiment: soluble on expression in E. coli; label from the status in PepcDB or PDB records

Sequence | soluble on expression in E. coli
MGSDKIHHHHHHMFTPRGFKFAGVHCKIKRKRKDLGIIFSEVPCVAAGVFTTNVVKAAPVIYDMEILKKNPNGIKAVVVNSGVANACTGEQGMINARRMAEKTAEELGVPVESVLVSSTGVIGVQLPMDKVENGIEEAARVLSNDPLPFAEAIMTTDTKVKMHSTKVMIDGKEITVLGIAKGSGMIHPNMATMLSFITTDAKISEEALKKLLKLSVDDSYNMIDVDGDTSTNDMVIVLANGLAGNTTIQPETDGFWKLYEAVHEVNQVLAEKIVEDGEGATKVMEVHVINAPDIKSARLIARSIVSSNLVKTAIYGEDANWGRVIAAAGYSGATFDPEKLDLFFESEAGRIKVAENGQGVSFDEEEAKKILSEKKIRIILDMKQGKETAKAWGCDLTEKYVEINGRYRT | not soluble
MGHHHHHHSHMEYSCGTAAIRGTKELGEGQHFWEIKMTSPVYGTLTFFKNRKCIGVAATKLQNKRFYPMVCSTAARSSMKVTRSCASATSLQYLCCHRLRQLRPDSGDTLEGLPLPPGLKQVLHNKLGWVLSMSCSRRKAPVSDPQAATSAHPSSREPRPCQRKRCRRT | not soluble
MFLVDSHCHLDGLDYESLHKDVDDVLAKAAARDVKFCLAVATTLPGYLHMRDLVGERDNVVFSCGVHPLNQNDPYDVEDLRRLAAEEGVVALGETGLDYYYTPETKVRQQESFIHHIQIGRELNKPVIVHTRDARADTLAILREEKVTDCGGVLHCFTEDRETAGKLLDLGFYISFSGIVTFRNAEQLRDAARYVPLDRLLVETDSPYLAPVPHRGKENQPAMVRDVAEYMAVLKGVAVEELAQVTTDNFARLFHIDASRLQSIR | soluble
SLTRNNELIAVGKGSSLKRLPVFGMEPRILYNPLQGQKCIVQTTSWSQCSKTCGTGISTRVTNDNPECRLVKETRICEVRPCGQPVYSSLKKGKKCSKTKKSPEPVRFTYAGCLSVKKYRPKYCGSCVDGRCCTPQLTRTVKMRFRCEDGETFSKNVMMIQSCKCNYNCPHANEAAFPFYRLFNDIHKFRDEG | not soluble
MGSDKIHHHHHHMPRYARKRSSTGIYHVMLKGIDGRDIFLDDEDKEKFIENMLKARDKGNFELYAYCLMDNHLHILIKESEGIGTSIKRIAVGYVQWHNNKYGRIGHLFQNRYLSEPVETESYLLTVVKYIHQNPLKARIVTQLADYKWSSYLQYLAAYKGDNSHIDPLLIMEYFKIQTEFESYMNEPTNSECLDYKQSSKYTDEILKNIIRESFGINDLIDMPNDMRNALIKDIYQSTGVSIRQLARVLGIGKSIVERALK | not soluble
SRRLRTPLQDLTRAATSLAAGNSRIRVPAGGAGPEVATLAHAFNTMADRLEHTEQVRRQMLSDLAHEMGTPLSVLTAYLDGLQDGVVDWNNANHTIMADQLTRLTRLMEDIDYVSRAQEHRIDLDLAEEGLGD | not soluble
MAAQSDRYDAVLVQYGLRPVRMEQRGKAVKVYTNRGVFALKPLESEQEAAAVWQSLQHGGPRCLPLYLTRRRSLFATEGGRLYYLQAWHDGESKVEKDAADAFFRELARLHRATVRTIEVSEEEAAAYRKQKKDEWQRARTVWEERIERYEAAWYMSPFQLQCCTYFHEVMRAYSFAEERLDVWEETLKETKQWRIAWVHGKARLSHYIPPYWISWERAHWNSPLFDVIAALRFHVQTMPPLGREWLEGMEEYEKELPLSDGERAFLYSHLAEPRGFVRCLERYEAASRNERNEREYVAALQRRYLAFKNMEALVMHLVQRDAARQQEEAVDNEPPSDESSNG | not soluble
MMRCPECSTEGWRVLPLTVGAHVKEGLWSKIKGDFYFCSLESCEVVYFNEQTVFRKGELKTRVGVKEREEPKPVCYCNRVTEKMLLEAAEKFGKEKAVEITGAGKGKWCVVTNPSGRCCHWHLERLGFPVGGEKKAAKRVEIKLDGLTCMGCVSAVKAALEEAGANVVEIGLDRAVVEVDEEAELQKLVEAVEGAGYSARLEKR | not soluble
MGAGREVSVSLDGVRDKNLMQLKILNTVLFPVRYNDKYYADAIAAGEFTKLAYYNDICVGAIACRLEKKESGAMRVYIMTLGVLAPYRGIGIGSNLLNHVLDMCSKQNMCEIYLHVQTNNEDAIKFYKKFGFEITDTIQNYYINIEPRDCYVVSKSFAQSEANK | soluble
MNYELMEPAKQARFCVIWLHGLGADGHDFVDIVNYFDVSLDEIRFIFPHADIIPVTINMGMQMRAWYDIKSLDANSLNRVVDVEGINSSIAKVNKLIDSQVNQGIASENIILAGFSQGGIIATYTAITSQRKLGGIMALSTYLPAWDNFKGKITSINKGLPILVCHGTDDQVLPEVLGHDLSDKLKVSGFANEYKHYVGMQHSVCMEEIKDISNFIAKTFKI | not soluble
MHSQQRPNPQMNRHPYGTPGSAPQMRRPGGFAGQPPQMHGPRMVAPPAAPLPKKKKYADKCIHPKIRELEPDAENYMALLASEQKLDSTLSRKKLDIQEALKRPSKVKKRLRIYISHTFIEEKQPEKDTDEASLPMWELRVEGRLLDEQPPAPAIPGQRPVPKRKFSSFFKSLVIELDKEMYGPDQHLVEWHRTPQTNETDGFQVKRAGDRPVKCRILLLLDNHPAKFKLHPRLAKVLGIATETRPKIIEALWQYIKTHGLQDPQERDIINCDTFLSQCFGVNRMRFMEVPNKLHQLLQQTDPLEFNHIIQRPKEGQEQVSTCYDIDVEMEDPVKQFMHTFVHSPGLANDIQTLDQKCYDIIEQINELKTRRDFYARFYTEPAEFIKSWVMSQNSDLKTMNELSGDLEAERFAESYVRPETEEGVQRYMFQKVNQKRHELEQSLGVRSN | not soluble
MDATMVFKRLLGSLGVGAPTVDTVLDPAPVLPGGTLTGQVHLEGGQTDFDIEHITLELVARVEAEHEDGEDEGVVVFDRFTVGGGFRLGAEEPRSVPFRVTLPWETPITELYGQPLGIVLGVRTELAVADAKDKGDLDQLTVTALPVQEAVLEAFGQLGFGFGSADLEYGHIGGTGQQLPFYQEIELVPAPQYADRLNEIELTFLAGPGGLEVVLEADKRGGLLSSGHDAVTRFSVGHHDARDWAAEVEGWVRQLVEHHTTYGAPGTHGHSTPYAGHGHHDPHGNGGRHHDDHRSGPGVGTAVAAGAAGLAVGVVGGMVAAEVVDEVGDFFEGDDEEEDEG | not soluble
MAHHHHHHMMLRSHVGYDDLQNGGSDQPVSFLRSAAGRTYLADGSSALSSAQLTAAQKLLPLTDRSSQAALDAARLEPPIEHASVMYHGCQQAVLNAELREKVEAHYKHWSSRVEELQALLSDLPTESALHSTRAVENLHSYLGAYRCTEDMLVTPSEVVEQHALRTPVPEIDVMFQMPAIPMDTMRRALDDLLRSPYLLAPLDTHLAHLSLLDKLGQLSWSGEGEVTAPLSKKPRGKRAVARKDCTVDESNETGVVLQAEEAAAEEDIYPSRAAVAMHERLHYNPGDYAQRELKKSEEALRELQDRMQTAKRQKEEAIDAADPLTALRNLHAQVDFSNDLLLLYRARMALVSLHSDDTRDFRRDVVDLIDDSHQSVQAVHRYAREALPSVQHDVRAMTEVIRQTQQRLIAMQATEAAADAGMRAHLCDMDKAARVLWEEVGALLEKIAENARERGRYAQKCMSLREQRAKEAAAVNAQLQAQSAHCERLCRCEEVLTRWNQAGDVFGKYMDACVPKLLKHLAAVEESDADLAQREAEGYVGCYEQFVYAAEEARAKRCTQADRMRLLQRSTLLNQERASDTMDPDAPAHAQRLDDVSRELDEVQLYLKYLSDMEADRKAEVDPVLRGVLARQTQAQLVTTGEEGEAEKPLPTPGLLEDAPAASTADAKPSLASPSTAAETTKSTSAVPATAAGDGAVVAATTTATTTAPPSLSVTVAHPFVTARLIGLAHESDYISQQGQLLGQEMQAVEAKWTGLRHSRKELQAMEEKYKNGDDIRALLGVEKL | soluble
MRADELPSKEEIEMHKDSCKYFSNDTEEEETEDEEENGEVAHAKAVAEEFGKSSKSKNVSSSMELDDEVAEGLKELDMDNYDEEDDGIEIFSSGRGDLYYKSNEMDPYLKRNDDHDDDSDDDPPILPTDLVIVCAMTDDKEANRLDVYVSEDTSHGSPNMYNHHYRIIPAIPLCTAWLDCPLKGGERGNFLAVGSDGTPTIEIWDLDAWFDMLPCVQLGGQNKEGNYKQGSHTRSVLGLAWNKEFRNILASASADKKVKVWDVATGTCKITMEHHTKEVQAVAWNHYAPEVLLSGSFDQTVVLKDGRQPSHSGFKWSVMSDVESLAWDPHSEHSFVVSLEDGTVKGFDVRQASISASESNPSFTINGHDEAATSVSYNISAPNLLATGSKDRTVKLWDLSNNEPSCIATHNPNAGGLFFIAFSPDNPFLLAMGGVMGELKLWDTLSDTNVSSRYGSREVRP | soluble
LEYLKNNCKVIIVDMHAEATSEKCALAWYLDGRVSCVLGTHTHVQTADERILPFGTAFISDVGMTGPYDGIIGVNREIVIQKFLTHMPVRFEVATGRVQFNAVYLEIDEKTGKTTGIERIYEILEV | not soluble
METRTYAIGVEATMDVIGGKWKPIILCNLRHGAMRPSDLKRGITGISQKMLTQQLRELEEDNIIERKVYNQVPPKVEYYLSDYGQSLSAVLDNLCNWGESHVAHLQEQGQEIYLKCED | not soluble
MKVKSISRFFSMKKVTLSFVTLFIGVGTIGSYNQYADASMKTQQTHVTKSSPTQKTTSNFKRSVKDTSVKSRATSIKRATSTKQAISPKTSSTKKTTIAKKSTTVNKTRTTTKTQPTIRKSSTTSTRSKTMPTSVKRTTSHKATTVSPTSKAKISTKTQQSTKSHTTSVKKNTTQLSKTKSPSTSTKSKTVQSSTTKAQPTLSTQVSTTTKAKQFSTPTTSKTDSSKSLVSLASTERKIDKYQSMTQLEKETTEGVDWRKDTKNTGNQVLIVAPHGGSIEQGTTELTKALADKGNYDYYSFEGIRPKNNSELHVTSTHYDDPTLNQMIKNRTATISIHGASGSEEIIYLGGPRSDLRNAIEKQLVARGFTVKVPPEYLGGQNNKNFINREDNNTGVQLELTTALRKAFFKNGDTSTKNRTNKENWTPTMEEFINALYEGINQTYSLEHHHHHH | not soluble
MKKYLFAEQGFVEKPDFGADCWVCVETPDAEDMKFLIDTLNVPEDFLSDIADADERPRVEHDGDWHLTILRIPIESRLSGVPYVTVPMGIATRSDVTVSVCYHRAPMLADFLLHTRRKRIKVLNRTELVLRLIYSSAVWFLKYLKQINNEVTISERELERSIRNEDLIHLMMLQKTLVYFSTSIRGNEAVLGKIRASGENRIDEELVEDVRIELRQAYNTVNIYSDILSGTTEALSGVISNNLNTIMKR | not soluble
MKIAITITVLMLSICCSSASSDICPGFLQVLEALLLGSESNYEAALKPFNPASDLQNAGTQLKRLVDTLPQETRINIVKLTEKILTSPLCEQDLRV | soluble
MGSDKIHHHHHHMKPITVLVSVDSNSVLMGARHFLNYFRDLVKEHNLEDTVDVLETGSMGIYPEGVIVSVLPDGVFYVVRNELDVRRIFEEHILKGRRVLDLEIPESQIKGTVEVEKVAEETRIVLKNVGEIDPTRIEEYIARDGYFALAKALQMEPGEIIEEIKRSGLRGRGGAGFPTGLKWEFTYKASADQKYVLCNADEGEPGTFKDRLIMEGDPHSLIEGMIIAGYAVGATKGYIYIRGEYHSSIEILKKAVEQAYEYGFLGENILGSGFNFDLKIRLGAGAYVAGEETALIESIEGKPARPRLKPPYPPTFGLFGKPTVVNNVETFVNVPRIIMNGAEWFKKFGTESSPGTKVFSLVGNVVRKGIVEVPMGVTVRDLIFKFGGGIEGGRKLKVVQTGGSAGTFIGPDKLDVPLDFDSYAKYGVSLGSGVILVADETHCVVDLALTVMRFFEHESCGKCTPCREGTRMIVNILERISRGEGKKEDLDTLREIARNAGETSFCGLGQSIPVPLLSIVDNFEEEFKAHIGADKCPVGVCEFKKKKEKKKIGVRKP | not soluble
